Assay results reported in the DeepSol protein solubility set.

Assay: soluble on expression in E. coli; label from the status in PepcDB or PDB records

Sequence | soluble on expression in E. coli
MGKPTGFMEIKREKPAERDPLTRLKDWKEYSAPFSEEASKRQGARCMDCGTPFCQIGADINGFTSGCPIYNLIPEWNDLVYRGRWKEALERLLKTNNFPEFTGRVCPAPCEGSCTLAISDPAVSIKNIERTIIDKGFENGWIQPRIPKKRTGKKVAIVGSGPAGLASADQLNQAGHSVTVFERADRAGGLLTYGIPNMKLEKGIVERRIKLLTQEGIDFVTNTEIGVDITADELKEQFDAVILCTGAQKQRDLLIEGRDSKGVHYAMDYLTLATKSYLDSNFKDKQFIDAKGKDVIVIGGGDTGADCVATALRQKAKSVHQFGKHPKLPPARTNDNMWPEQPHVFTLEYAYEEREAKFGRDPREYSIQTTKMVADKNGKLKELHTIQMEKVKNEHGKYEFRELPGTEKVWPAQLVFIAIGFEGTEQPLLKQFGVNSVNNKISAAYGDYQTNIDGVFAAGDARRGQSLIVWAINEGREVAREVDRYLMGSSVLPLEHHHHHH | soluble
MGKVNVAKLRYMSRDDFRVLTAVEMGMKNHEIVPGSLIASIASLKHGGCNKVLRELVKHKLIAWERTKTVQGYRLTNAGYDYLALKTLSSRQVVESVGNQMGVGKESDIYIVANEEGQQFALKLHRLGRTSFRNLKNKRDYHKYRHNVSWLYLSRLSAMKEFAYMKALYERKFPVPKPIDYNRHAVVMELINGYPLCQIHHVEDPASVYDEAMELIVKLANHGLIHGDFNEFNLILDESDHITMIDFPQMVSTSHPNAEWYFDRDVKCIKDFFMKRFSYESELFPTFKDIRREDTLDVEVSASGYTKEMQADDELLHPLGPDDKNIETKEGSEFSFSDGEVAEKAEVYGSENESERNCLEESEGCYCRSSGDPEQIKEDSLSEESADARSFEMTEFNQALEEIKGQVVENNSVTEFSEEKNRTENYNRQDGQRVQGGVPAGSDEYEDECPHLIALSSLNREFRPFRDEENVGAMNQYRTRTLSITSSGSAVSCSTIPPELVKQKVKRQLTKQQKSAVRRRLQKGEANIFTKQRRENMQNIKSSLEAASFWGE | not soluble
MGLFDRLRAGLAKTRERLLKAIPWGGDPEEVLEELEMALLAADVGVAATEELLKEVRASGRRDLKEVVKEKLVQMLEPDERRATLRKLGFRPQKLRPVEPQGHVVMVVGVNGVGKTTTIAKLGRLYQGLGKKVLFCAGDTFRAAGGAQLAEWGKRLGIPVIQGPEGADPAALAFDAAKARRARGLDLLFVDTAGRLHTKQGLMEELKKVKRAIAKADPGEPGEVWLVLDAVTGQNGLEQAKRFHEAVGLTGVIVTKLDGTAKGGVLVPIVRTLKVPIRFIGVGEGPDDLQPFDAEAFVEALLEA | soluble
MGLFLEDLAVGDRFDSARHRVEAAAIKAFAGEFDPQPFHLDEEAARHSLFGGLAASGWHTAAITMRLLVTSGLPLAQGIIGAGTELSWPNPTRPGDELHVETTVLAITPSKSRPDRAIVTCQSDTLNQRGEVVQRSTAKVVVFRRPLEHHHHHH | soluble
MGLHPTLGEHGERELLALQKVDYPKGDVKAQAKHTARTLLECYNCHSLGEYNTLLNLYNITVYEVRGSVDGKEYHGIMYGALDDNGQQVGTPFKSSKFGKVFGYEALQKKFAASAEKVKKDNLPERLEHHHHHH | soluble
MGLIKAATSSVGGGLADQWLEVIEPDNMGDTTVMTKGVFVRKDDKRGSNRKGTDDVLTDGSVVHVYPNMMMLLVDGGKIIDYTAEEGYYTVKNDSAPSMFNGSLKDAIAETFSRFKFGGVTPQKQQVFYINLQEIKGIKFGTPAPLNYFDNFYNAELFLRAHGNYSIKITDPLLFYTNAIPKNQTQVDINDINEQYLAEFITALQAAINQMSADGQRISYVPSKSVELSKYMQTALDEDWRTNRGMEIVSVAVASISYTDDSTKLINMRNEGAMLSDPGVREGYVQGSLARGMEAAGKNEGGAMSGFMGVGMGMNANGNYFAQASQTNQQQMQEKQNQQNAQGATDTWTCPQCGTENTGKFCSNCGTPKPTNEKPKLEMKCSECSEIVDLSNGIPKFCPHCGKPFQGVPL | not soluble
MGLIKAATSSVGGGLADQWLEVIEPDNMGDTTVMTKGVFVRKDDKRGSNRKGTDDVLTDGSVVHVYPNMMMLLVDGGKIIDYTAEEGYYTVKNDSAPSMFNGSLKDAIAETFSRFKFGGVTPQKQQVFYINLQEIKGIKFGTPAPLNYFDNFYNAELFLRAHGNYSIKITDPLLFYTNAIPKNQTQVDINDINEQYLAEFITALQAAINQMSADGQRISYVPSKSVELSKYMQTALDEDWRTNRGMEIVSVAVASISYTDDSTKLINMRNEGAMLSDPGVREGYVQGSLARGMEAAGKNEGGAMSGFMGVGMGMNANGNYFAQASQTNQQQMQEKQNQQNAQGATDTWTCPQCGTENTGKFCSNCGTPKPTNEKPKLEMKCSECSEIVDLSNGIPKFCPHCGKPFQGVPLLEHHHHHH | soluble
MGLISKNRGPCQVCHNTETTRRHFGIISCTACAAFFRRSIGMQYLCTAENRCTISFDRKFFCRACRYASCLKAGMKLELIRKQKNNIYLRFPDAASNQQNLVRDSMSPATSEGGQSSSSKTDEESDDPEYSKILKMYHDDLLQYYVKEVKKMMAEKRRGCEKNTLQIKTISDLMLITARQSGPSMEECLRCPGVDMLEKEDVEALLRYYRFSNIWVDSVLIDSVLESAKGDSHTDTDDRLSRFIQEVKSTLGSSLAHLNLNIYEFAAFKALCIWKLRFYETSFAQKIIAHEHYEGVTGALRNYYENCTELADMEIAIRIGDITLQIVTVQNTYHEMVRLYYQIGMPL | not soluble
MGLPAHHIDAFLDRLRTAHYSEVSLRKKRRVLCAFSGWMKHRNIDLIDLDESVTARFMKRMIDASRDRVQRARPTLRQFLAYLRAEAIVCSPTLGSQSAIAHTYRRYLDYLRQDRGLAKNSLLVYGPFIRDFLDSHSAGDGSLLPDAFDAVTIRNHLLARSKGRSAEYTRLMAVALRSFCHFLFLRGDTARDLAGSVPSVRKWRQSTVPTFLTPEQQEALIASADRSTPTGLRDYAILLLLARLGLRAGEIIEIELDDIHWRSGELVVHGKGQMVEHVPLSSEVGAAIATYLRDGRGASASRRVFLRRLAPRVGLAGPAAIGKIVCQAFARVGFRPACRGAAHLFRHGLATTMIRHGASMAEIAEVLRHRSPDSTAIYAKVAFEDLRGVARSWPTAGGAILEHHHHHH | soluble
MGMRLICLNGWGGKLHDKLVPYIASSDPDILCLQEVVHTPAATQDWLSYRDHGVELPQRANFFRDVAEALPDHVAIFCPAAQGDLWQGETRYPSQFGLATFVRKSIAIIAQAQGFVHGVFSADGYGNHPRSRTAHAIRVFDFTTGQPVVIAHMHGLRDLEGKHDIPARLHQAKRLVQFVKNIAEDGDRVIVCGDFNVLPDSRTFAVLNELDLVELVTTRGFTDTRTSHYAKPNRYADYLLVNPAVKVSQFDVVRQPEVSDHCPLLLEFSMAGDPLEHHHHHH | not soluble
MGMYFVGIDGGGTSCRARIKDSQGNFLGEAKSGSANIMLGAEIAMASILESITSAAEQGGLTQQDFASMHVGLALAGAEHKASWQAFMSLPHPFASMTLNTDAYGACVGAHNGEDGAIMIAGTGSCGIYLKGLEQHVVGGREFPISDQGGGAVMGLRLVQQVLLAEDGIREKTPLAQHVMAYFENDVDNVVAWSKQALPRDYGQFSPAIFQHAEQGDALAIEMLKQTAADIEMFLVALNKRGATRICLMGSIAERILRWLSPPVQQWVVEPQFDAIEGAIMFAGKPEHNLYSLSAALEHHHHHH | not soluble
MGNESTPLRTITQALKLARPGTVIQLTPGNYSVETGETFPLMLKPGVSIQGNTSNKGQEVKIQGGGLFLSRSFGGQNVAIVGANQAGLTGVTITNPNPRGYGLWIESSNPVISENTFTGNTQDGISVTGNSATTITKNYFYRNGANGITIGGNSPAQVRENLFEETGFGINVAQNAVPMLVSNQIQNNRSGIIVQANARPILRNNLIQGSKEDGVVAIAQAMPDLGNATEAGGNEFRNNARHDINASAAKQAIAAVGNILDTKRITGKVALEHHHHHH | not soluble
MGNFTFEEMNLMCIYNTGSRTGLIDSLREMRGELSPEETELRELTDSALTKLCAMTDEDFAQLELYPDFDQLEHHHHHH | soluble
MGNKIAVIPGTFDPITNGHLDIIERAAKIFDVLYVSVLNNSSKKPLFTVEERMEMIKQVTAHLPNVHVESASGLTVDYAAKRGATAIVRGLRAVSDFEYEMQIASMNRTLNADIETFFVMTNTKYSFLSSSMVKEVAQYQGDIRELVPEVVNKAVKAKFNK | not soluble
MGNLCSTSKNEAEPFSRPGRVLGSAANPPPNAAPRAPLPAKSKAPFKSPGRSLGEAAPEVPGAERADARTNAAIAAQVSDTVERSGAALVCGRWLTGECQKRAESAAKAQKGKLGSKLAAQKAQTQAKTLSEVSREQISARHMDESSEARRWN | not soluble
MGNRLSKIATRTGDDGTTGLGDGSRVRKDDARIAAIGDVDELNSQIGVLLAEPLPDDVRAALSAIQHDLFDLGGELCIPGHAAITDAHLARLDGWLAHYNGQLPPLEEFILPGGARGAALAHVCRTVCRRAERSIVALGASEPLNAAPRRYVNRLSDLLFVLARVLNRAAGGADVLWDRTRAH | soluble
MGNYKFRISEMLPNAWFHKLKDVTKHSKPKNKASSSSSNTCSKKKPSSDSLPQHSYFSNSLVANNPPHHNSPRNSLHTKKMSKRKTLYKPSLKPLTPPPLLVSASFNKSKINDQDSSYSLFPAIETSPESFVYSFYEEDDDDEFVEFSNFKINTKNKAFTKQKVKVIDSVEKACTASKPIKKPQKSHLSVKISRDEDDNEYKAEKKYQRQVSSGRKPSAGINLKRVNSPRIQLSGTRRSTSRRSESKQDVLESFAVMKRSVDPKKDFRESMIEMIEENNIRASKDLEDLLACYLTLNPKEYHDLIIHVFEQIWLQLTKTK | soluble
MGQELNKIGIEVLRIVSIRDREEEIMEAVDNAMKRVNIVLVTGGLGPTKDDITKQTLCKYFHTELIFSEEVFENVKRVLAGKIPMNALNKSQAMVPKDCTVINNPVGSASVSWFEKDNKVLVSMPGVPQEMTAVMTESVLPKLREKFQTDVIMHRTFLVQHYPESILAEKLEPWETALPESIKLAYLPKLGIIRLRLTGRGQNKIEVESALNDEQAKLEAILGDDIFSEEDIPLEVIVGELLKKKNLTVSTAESCTGGSIAARLTSIAGSSEYFNGGIVAYSNEVKMNLLHVSPETLEVYGAVSEQTVIEMVKGAMKALKTDCAVATSGIAGPGGGTPEKPVGTVWIAAGYKNEIRTYRQETNRGRAMNIERAGNNALLILRDLLK | not soluble
MGQFILEIYKIRIVSQTHLFSKLIFHSFLSFLFNDFSHLSASLPPLIDLSTKKKLLARASEGATSSSSPLPPASTATLSAFRPPARMIPPPVVLPQQYAPLPGFTPLLPAQAMMANFPPNALYQLGTPPFENGNNRIRFKDAAMVVLSRLSFNQRRLDNAHQ | not soluble
MGQTLSEPVTKKESASCANENYLVGSSCMQGWRVDMEDAHTHLLSLPDDPKCAFFAVYDGHGGSKVSQYSGINLHKKVVAQKEFSEGNMKEAIEKGFLELDQQMRVDEETKDDVSGTTAVVVLIKEGDVYCGNAGDSRAVSSVVGEARPLSFDHKPSHETEARRIIAAGGWVEFNRVNGNLALSRALGDFAFKNCDTKPAEEQIVTAFPDVITDKLTPDHEFIVLACDGIWDVMTNQEVVDFVREKLAEKRDPQSICEELLTRCLAPDCQMGGLGCDNMTVVLVGLLHGQSPDTLFTKCARPAVFTGVNNEDGDQNQIQQDISRVINNFDGEQRVNAANQEEEEDDNEPAPANFQV | soluble
